The supplement of paper PMC12455559
± gives the standard deviation of the averaged measurements.

Assays:
[1] = purified protein yield per well (BCA); higher = higher soluble expression
Procedure, shortened: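 On an OT-2 robot, lysed cells were processed by binding protein to Ni-charged magnetic beads and releasing it with SUMO protease. Expression took place in E. coli C41(DE3), in 2 mL autoinduction cultures with 100 µg/mL kanamycin, for 2 h at 37 °C followed by 40 h at 18 °C. The Pierce Rapid Gold BCA kit was used to quantify purified protein yield in each well, with values under 25 ug (0.1 mg/mL) below the detection threshold.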

[2] = melting temperature (DSF); higher = more thermostable
Procedure, shortened: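 Candidate enzymes were expressed in E. coli C41(DE3), purified on nickel beads and released by SUMO protease cleavage. For differential scanning fluorimetry, 45 μL enzyme (0 to 0.3 mg/mL) was mixed with 5 μL 5X Sypro Orange in sealed PCR plates on a Bio-Rad CFX96 instrument. Fluorescence was read from 25 °C in steps of 0.3 °C per cycle (ramp 0.3 °C/s) for 250 cycles. The read-out is melting temperature.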

[3] = PET hydrolysis, aromatic products released after 48 h (umol product/mg enzyme); higher = more PET depolymerization activity
Procedure, shortened: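 Candidate enzymes, made tagless by SUMO cleavage and purified on nickel beads, were added at 5 μg (50 μL) to 3.5 mg of either amorphous PET film or crystalline PET powder in 450 μL buffer. The sealed plates stood unshaken for 48 h at 40 or 60 °C. Activity on PET is the aromatic product found in the supernatant per mg enzyme, read at 260 and 280 nm against buffer blanks.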

[4] = substrate: cryPow, 40 °C, pH 4.5
[5] = substrate: cryPow, 40 °C, pH 5.5
[6] = substrate: cryPow, 40 °C, pH 6.5
[7] = substrate: cryPow, 40 °C, pH 7.5
[8] = substrate: cryPow, 60 °C, pH 4.5
[9] = substrate: cryPow, 60 °C, pH 5.5
[10] = substrate: cryPow, 60 °C, pH 6.5
[11] = substrate: cryPow, 60 °C, pH 7.5
[12] = substrate: cryPow, 40 °C, pH 8.5
[13] = substrate: cryPow, 60 °C, pH 8.5
[14] = substrate: aFilm, 40 °C, pH 5.5
[15] = substrate: aFilm, 40 °C, pH 6.5
[16] = substrate: aFilm, 40 °C, pH 7.5
[17] = substrate: aFilm, 60 °C, pH 5.5
[18] = substrate: aFilm, 60 °C, pH 6.5
[19] = substrate: aFilm, 60 °C, pH 7.5
[20] = substrate: aFilm, 40 °C, pH 4.5
[21] = substrate: aFilm, 60 °C, pH 4.5

ADNPYQRGPAPTAASIAADRGPFATAQVTVPRGNGFGGGVIYYPTDTSQGTFGAIAIAPGFGTAWSYYAWQGPRLASFGFVVIGIETNTLNDYADARAAQLLAALDYLVNSSSVRDRVDRNRLAVGGHSMGGGGAILAANQRPSLLTAVGQAPYVPDGSLSGIKSPTIIFAGQADGTVTPQYAQNAYNTIPGSVERAYVEIANEGHGFPAGGGGGNSGAFARTMMVWLKLFVDKDTRYAPFLCPSLTNANGISKYMASCPLDPPGGGPTASPTSTPTSTPTSTPTSTPTGTPPAGGTSALRGVASGRCLDVNGASQANGATVLIWDCNGQNNQKWTSTSAGELRVYGNKCLDVNGGGTADGSAVIIWDCNGQSNQKWRLNSDGSITAVGANKCLDVSGNGTANGTRVQIWSCTGGTNQKWTRV [ESM010]
purified protein yield per well [1]: 79.7 µg
melting temperature [2]: 64.6 C
PET hydrolysis [3, 4]: < 3
PET hydrolysis [3, 5]: 3
PET hydrolysis [3, 6]: 4
PET hydrolysis [3, 7]: 5
PET hydrolysis [3, 8]: < 3
PET hydrolysis [3, 9]: < 3
PET hydrolysis [3, 10]: < 3
PET hydrolysis [3, 11]: < 3

ADNPYQRGPAPTAASISADTGPFATATTVAEGTGFGGATIYYPTDTSQGTFGAIGMLPGWTAPWSAYAWLGPRLASQGFVVIGVDTNDPNDYPAARATQVLAALDHLTESSAVRDRVDPDRLAVAGHSMGGGGSLEAALSRPSLKAVYGIEPYDDITSDFSNLTVPTFIQAGQDDTLVTPSYLESLYATLPSTSEHAYLEIAGADHMFVGSPNVILARTLISWMKIFVDDDTRYTQFLCPLSDDSGVSQYRNTCPLTPGGSTGSPTATAPSPPASSSNPPGTPSSPAPTDGTCRVTYTTNAWDSGLTASVTIANTGTTASTGWSLAFTLPDGQTITSGWNATYSPSSGQVTATGVSHNATIPAGESINIGFQATHTGDTGAPTTFALNGQTCTIT [DP021]
purified protein yield per well [1]: 170 µg
melting temperature [2]: 47.5 C
PET hydrolysis [3, 5]: 5
PET hydrolysis [3, 6]: < 3
PET hydrolysis [3, 7]: < 3
PET hydrolysis [3, 12]: < 3
PET hydrolysis [3, 9]: < 3
PET hydrolysis [3, 10]: < 3
PET hydrolysis [3, 11]: < 3
PET hydrolysis [3, 13]: < 3

ADNPYQRGPAPTNTSIEATRGTYAVSTKTISALSARGFGGGTIYYPTSTADGTFGVVAISPGYTASQSTIAWLGPRLASFGFVVVTIDTTTRYDQPTSRGSQLLAALDQAIGDSTVGPRIDATRQAVVGHSMGGGGTLEAAKTRRSLEAAVPLTGWNLDKTWPEVEAATLVIGAQNDTVAPTTSHSIPFYNSLSGAERKAYLELRGASHFAPVTSNTTIAKHTLSWLKRYVDDDTRYEQFISPGPSTAIGSPVSDYRVN [DP022]
purified protein yield per well [1]: 215 µg
melting temperature [2]: 35.8 C
PET hydrolysis [3, 14]: < 3
PET hydrolysis [3, 15]: < 3
PET hydrolysis [3, 16]: < 3
PET hydrolysis ([3]; substrate: aFilm, 40 °C, pH 8.5): < 3
PET hydrolysis [3, 17]: < 3
PET hydrolysis [3, 18]: < 3
PET hydrolysis [3, 19]: < 3
PET hydrolysis ([3]; substrate: aFilm, 60 °C, pH 8.5): < 3
PET hydrolysis [3, 5]: < 3
PET hydrolysis [3, 6]: < 3
PET hydrolysis [3, 7]: < 3
PET hydrolysis [3, 12]: < 3
PET hydrolysis [3, 9]: < 3
PET hydrolysis [3, 10]: < 3
PET hydrolysis [3, 11]: < 3
PET hydrolysis [3, 13]: < 3

ADNPYQRGPDPSRTSVATETGPFANASVSVPTGYGFNGGRIYYPTDSSQGTFGAIAISPGYTALFSAELAWMGPWLASHGFVVIGIETNSRNDFDTARGTQLLAALDYLTQQSPVRDRVDPNRLAVAGHSMGGGGALSAAVRRSSLKAAVGIAPYSPSSNLANDRVPTMVFSGQADTVVTPSYAIGLYNSLPTTTESVYLEVAGADHGFMVGRSNPVMIRTMLPFVKMFIDNDTRYSQFLCPLLDSSGVVTYRSTCPLLPTTPTTPPVNPTTPPVNPTVSPTGAPGSASEIVGVQSGRCVDVPNASRTNGTRVQLYDCNRQSQQSWTYTSGRQLRVYGDMCLDAAGSGNGAAVQIYACHSQTNQQWNVNSNGTISGVQSGRCLDVWSTANGAQVQLYDCHGQTNQRFNVMPLAR [TEP092]
purified protein yield per well [1]: 154 µg
melting temperature [2]: 60.4 C
PET hydrolysis [3, 4]: 5
PET hydrolysis [3, 5]: 10
PET hydrolysis [3, 6]: 8
PET hydrolysis [3, 7]: 3
PET hydrolysis [3, 8]: < 3
PET hydrolysis [3, 9]: < 3
PET hydrolysis [3, 10]: < 3
PET hydrolysis [3, 11]: < 3

ADNPYQRGPDPTAASIAAVTGPFATASVTVPRGNGFGGGVIYYPTDTSQGTFGGIAISPGLNGTWPGIAWLGPRLASQGFVVFGIETNNLNDSPTSRGTQLLAALDYLTGSSSVRTRVDAGRLAVAGHSMGGGGALDAALRRPSLRATIGNAPHLPSGSLANDRVPTLIYAMQNDTLVPPSRLTSLYNTVPATTERGYLEITGAGHNYIGQPSTILARTMIPWLKIFVDDDARYSQFLCPLTDRSGISQYQSSCPLITTSPTTGPTAQPTTAAPTTTPTTPPVGGPCEATHRTVNSWSGGYQGEVTVRAGSAAINGWTVSWTLGSGQTINQVWGGALTASGTAATVRNETWNGPVAAGASTTFGYIATGNAPTQPLACSAR [ESM060]
purified protein yield per well [1]: 279 µg
melting temperature [2]: 58.6 C
PET hydrolysis [3, 20]: < 3
PET hydrolysis [3, 14]: < 3
PET hydrolysis [3, 15]: 1.5 ± 2.1
PET hydrolysis [3, 16]: 8 ± 1.4
PET hydrolysis [3, 21]: < 3
PET hydrolysis [3, 17]: < 3
PET hydrolysis [3, 18]: < 3
PET hydrolysis [3, 19]: < 3
PET hydrolysis [3, 4]: < 3
PET hydrolysis [3, 5]: 11.5 ± 2.1
PET hydrolysis [3, 6]: 24.5 ± 2.1
PET hydrolysis [3, 7]: 38 ± 1.4
PET hydrolysis [3, 8]: < 3
PET hydrolysis [3, 9]: < 3
PET hydrolysis [3, 10]: 5.5 ± 0.71
PET hydrolysis [3, 11]: 12.5 ± 0.71

ADNPYQRGPDPTAASVTAVNGPFANTSVSVPTGYGFNGGRIYYPTDTSQGTFGAIAISPGYTALFSAELAWMGPWLASHGFVVIGIETNSRNDFDTARGTQLLAALDYLTQQSPVRDRVDPNRLAVAGHSMGGGGALSAATRRPSLKAVVGIAPYSPSSNLANDRVPTMIFAGQADTVVTPSYATGLYNSLPTTTESTYLEVAGADHGFMVGRSNPVLVRTMLPFVKMFLDNDARYSQFLCPLLDNSGVVTYRSTCPLLPSTPTSPTPTTTPTSTPTPTPTVTPTTPPGSASQIVGTQSGRCVDVPNASRTNGTRVHLWDCNRQANQAWTYTANKQLQVYGTMCLDAAGTGNGAAVQIYSCHGQTNQQWNVNSNGTISSVQSGRCLDVWSTANGAQVQLYDCHGQTNQQFRLTALN [ESM130]
purified protein yield per well [1]: 138 µg
melting temperature [2]: 58 C
PET hydrolysis [3, 4]: < 3
PET hydrolysis [3, 5]: 6
PET hydrolysis [3, 6]: 3
PET hydrolysis [3, 7]: < 3
PET hydrolysis [3, 8]: < 3
PET hydrolysis [3, 9]: < 3
PET hydrolysis [3, 10]: < 3
PET hydrolysis [3, 11]: < 3

ADNPYQRGPDPTAESVRASRGTFATTQVTVPAGNGFGGGVIYHPTDTSQGTFGAVAIVPGYTATWAAEGAWMGHWLASFGFVVIGVDTINRNDWDTARGTQLLAALDYLTQQSPVRNRVDASRAAVMGHSMGGGGAMSAALRRPSLKAAVGLAPFSPSQNLTNTRVPTMLIAGQNDGTTTPASISTLYNGIPASTESAYLEFAGAGHGFPTSNNPLMMRVVIPWLKIFVDNDTRYSQFLCPLTDRTGITQYRSTCPLTPPGAPTSPPTTTAPPTPTTSPSVTPSTSPSATPTTPAPDGACRATYRTTNSWPGGYQAEVTVTAGNSPINGWTVRWTLGSGQSISQVWNGTLTTSGSAVTVRNVSYNGSLQPGTSTTFGFIGGGTPSTPVLACVSP [ESM018]
purified protein yield per well [1]: 530 µg
melting temperature [2]: 61.3 C
PET hydrolysis [3, 20]: < 3
PET hydrolysis [3, 14]: < 3
PET hydrolysis [3, 15]: < 3
PET hydrolysis [3, 16]: < 3
PET hydrolysis [3, 21]: < 3
PET hydrolysis [3, 17]: < 3
PET hydrolysis [3, 18]: < 3
PET hydrolysis [3, 19]: < 3
PET hydrolysis [3, 4]: < 3
PET hydrolysis [3, 5]: 3
PET hydrolysis [3, 6]: 11 ± 1.4
PET hydrolysis [3, 7]: 30 ± 1.4
PET hydrolysis [3, 8]: < 3
PET hydrolysis [3, 9]: < 3
PET hydrolysis [3, 10]: 7 ± 9.9
PET hydrolysis [3, 11]: < 3

ADNPYQRGPDPTLASVAANRGTFATAQLSVPGDGFGSGVIYYPTDTSQTFGAVAIVPGYSALFSVEEAWMGHWLASFGFVVIGIETISRSDSADARATQLLAALDYLTQRSSVRSRVDASRLSIIGHSAGGAGVLTAVLRRPTLKAAVGLAPGSPVGNYNLSSDRVPTMFISGQRDTTVSQSYLNGIYPTIPASTPSAWVELTGGDHLFPTRANTNMMRVLIPWLKIFVDNDTRYTQFLCPLMDSSGISMYRNKCPYVPTSPSPSPSTSPSPSVSPSPSPSASPSPSPSPSTSPSPQPSGACSATYRTVNSWSGGYQAEVTVTAGSSAINRWSVRWTLSSGQSISQVWNGTLSAGGSSVTVANASYNGSLPASGTTTFGFLANGAPSTPTLTCTSP [ESM034]
purified protein yield per well [1]: 392 µg
melting temperature [2]: 59.8 C
PET hydrolysis [3, 20]: < 3
PET hydrolysis [3, 14]: < 3
PET hydrolysis [3, 15]: < 3
PET hydrolysis [3, 16]: < 3
PET hydrolysis [3, 21]: < 3
PET hydrolysis [3, 17]: < 3
PET hydrolysis [3, 18]: < 3
PET hydrolysis [3, 19]: < 3
PET hydrolysis [3, 4]: < 3
PET hydrolysis [3, 5]: < 3
PET hydrolysis [3, 6]: < 3
PET hydrolysis [3, 7]: < 3
PET hydrolysis [3, 8]: < 3
PET hydrolysis [3, 9]: < 3
PET hydrolysis [3, 10]: < 3
PET hydrolysis [3, 11]: < 3

ADNPYQRGPDPTLASVAASRGPFATTQATVPPGNGFNGGYVYYPTDTSLGTWGAVAIVPGYSALFANEEAWMGPWLASFGFVVLGIETNSRNDGADARATQLLAALDYLTQSSPVRNRVDPNRLSVMGHSAGGAGTLMAALRRPSLKTAVGLAPGAPGNSLNMSTTKVPTMLISGQNDGTVTPSYVQGIYNTLPASVEHAWAELAGNDHLSFTRPNPTEMRILIPWLKIFLDNDTRYTQFLCPLADSTGVSRYNSTCPLVPPGVPTSPPTTPPTSTPPPTGPPTSPPPPTTTPPPAGGACTATYRTVGSWSGGFQGEVTVTAGSAAINGWTVRLDLGGGQSISQVWNGTLSTSGSTATVRNVSYNGSLAAAGSTTFGFLGSGTPPAPTPTCTSP [ESM005]
purified protein yield per well [1]: 88.4 µg
melting temperature [2]: 67 C
PET hydrolysis [3, 4]: < 3
PET hydrolysis [3, 5]: < 3
PET hydrolysis [3, 6]: < 3
PET hydrolysis [3, 7]: < 3
PET hydrolysis [3, 8]: < 3
PET hydrolysis [3, 9]: < 3
PET hydrolysis [3, 10]: < 3
PET hydrolysis [3, 11]: < 3
